# Data published in patent publication US11078465B2, “Alcohol dehydrogenase mutant and application thereof in synthesis of diaryl chiral alcohols” (Jiangnan University, priority 2018, dated 2021).
# “Also recorded” adds a separate entry of the source.
# B1: E214S/S237C: serine for glutamate at position 214 and cysteine for serine at position 237 of SEQ ID No. 2 (protein)
# chain: MSVLISGASGYIAKHIVRVLLEQNYKVIGTVRSQDKADKLLKQYNNPNLSYEIVPEIANLDAFDDIFKKHGKEIKYVIHAASPVNFGAKDLEKDLVIPAINGTKNMFEAIKKYAPDTVERVVMTASYASIMTPHRQNDPTLTLDEETWNPVTEENAYENVFTAYCASKTFAEKEAWKFVKENSDAVKFKLTTIHPSFVFGPQNFDEDVTKKLNSTCEIINGLLHAPFDTKVEKTHFCQFIDVRDVAKTHVLGFQKDELINQRLLLCNGAFSQQDIVNVFNEDFPELKGQFPPEDKDTDLNKGVTGCKIDNEKTKKLLAFEFTPFHKTIHDTVYQILHKEGRV
# modifications: Protein translated from synthetic DNA
# B2: E214V/S237A: valine for glutamate at position 214 and alanine for serine at position 237 of SEQ ID No. 2 (protein)
# chain: MSVLISGASGYIAKHIVRVLLEQNYKVIGTVRSQDKADKLLKQYNNPNLSYEIVPEIANLDAFDDIFKKHGKEIKYVIHAASPVNFGAKDLEKDLVIPAINGTKNMFEAIKKYAPDTVERVVMTASYASIMTPHRQNDPTLTLDEETWNPVTEENAYENVFTAYCASKTFAEKEAWKFVKENSDAVKFKLTTIHPSFVFGPQNFDEDVTKKLNVTCEIINGLLHAPFDTKVEKTHFAQFIDVRDVAKTHVLGFQKDELINQRLLLCNGAFSQQDIVNVFNEDFPELKGQFPPEDKDTDLNKGVTGCKIDNEKTKKLLAFEFTPFHKTIHDTVYQILHKEGRV
# modifications: Protein translated from synthetic DNA
# How the values were obtained:
# Assay type in all cases: biochemical
# [1] = Kinetic analysis of alcohol dehydrogenase and mutants (NADPH oxidation, 340 nm, double reciprocal curve); settings: substrate CPMK
# Procedure: (§1) Adopting a total reaction system of 200 μL, including: 1.0 mM NADPH, 1.0 mM substrate CPMK and sodium phosphate buffer (PBS, 100 mM, pH 7.0), fully and evenly mixing, maintaining at 30° C. for 2 min, adding an appropriate amount of enzyme solution, and detecting the change in light absorption at 340 nm.
# (§2) The enzyme activity was calculated by the following formula: Enzyme activity (U)=EW×V×10^3/(6220×I);
# (§3) in the formula, EW is the change in absorbance at 340 nm in 1 min; V is the volume of a reaction solution in mL; 6220 is the molar extinction coefficient of NADPH in L/mol·cm); and 1 is the optical path distance in cm. One activity unit (U) corresponds to the amount of enzyme required to catalyze the oxidation of 1 μmol NADPH per minute under the above conditions.
# A column used for purification was a nickel affinity column HisTrap FF crude, and purification was achieved through affinity chromatography using a histidine tag on recombinant protein. The nickel column was equilibrated with a solution A first, a crude enzyme solution was loaded, a penetrating peak was further eluted off using the solution A, and after equilibrium, a solution B (20 mM sodium phosphate, 500 mM NaCl, and 1000 mM imidazole, pH 7.4) was used for gradient elution to elute off the recombinant protein bound to the nickel column, so as to obtain the recombinant alcohol dehydrogenase mutant. The purified protein was subjected to activity measurement (CPMK as substrate, and NADPH as coenzyme) and SDS-PAGE analysis. […] The purified alcohol dehydrogenase protein was then replaced into a Tris-HCl (100 mM, pH 7.0) buffer using a Hi Trap Desalting column (GE Healthcare).
# The activity of KpADH at different substrate concentrations and coenzyme concentrations was determined, and a double reciprocal curve was made based on the reciprocal of activity and substrate concentration to calculate kinetic parameters.
# [2] = Stereoselectivity (ee) of CPMK reduction, chiral liquid chromatography; settings: for e.e.: product configuration in brackets
# Procedure: (§4) In an embodiment of the present disclosure, a chromatographic analysis method is as follows: 100 μL of reactant liquid is taken, 500 μL of ethyl acetate is added, shaking is performed for 1-2 min, centrifugation is performed at 12,000 rpm for 2-5 min, supernatant liquid is taken into a centrifuge tube, after an organic phase naturally volatilizes completely, 500 μL of chromatographically pure ethanol is added, and chiral liquid chromatography and gas chromatography are performed to analyze the transformation rate and the ee value.
# (§5) Method for determining optical purity ee:
# (§6) As: molar concentration of (S)-CPMA obtained by liquid chromatography; and AR: molar concentration of (R)-CPMA obtained by liquid chromatography.
# [3] = Substrate specificity, specific activity
# Procedure: as §1, §2, §3
# (§7) The reduction on prochiral carbonyl compounds by the alcohol dehydrogenase mutants obtained in Example 3 was studied. The pro-chiral carbonyl compounds include (4-chlorophenyl)-(pyridin-2-yl)-methanone (CPMK), phenyl-(pyridin-2-yl)-methanone, (4-chlorophenyl)-(phenyl)-methanone, (4-bromophenyl)(phenyl)methanone, (4-fluorophenyl)(phenyl)methanone, (4-methoxyphenyl)-(phenyl)-methanone, (4-nitrophenyl)(phenyl)methanone, 1-(pyridin-2-yl)ethanone, acetophenone, 4′-Chloroacetophenone, 4-chlorophenacyl chloride, ethyl 2-oxo-4-phenylbutanoate (OPBE), ethyl 4-chloro-3-oxobutanoate, and methyl 2-oxo-2-phenylacetate.
# [4] = Stereoselectivity on different substrates; settings: for Stereoselectivity (ee): configuration in brackets
# Procedure: as §4, §5, §6, §7
# All the products above were recrystallized from ethyl acetate and gave more than 99.9% optical purity.
# [5] = Stereoselectivity on different substrates; settings: configuration in brackets
# Procedure: as §4, §5, §6, §7
# [6] = Asymmetric reduction in 20 mL biocatalytic system, conversion
# Procedure: as §4
# The pure (R)-CPMA were recrystallized from ethyl acetate at 4° C. and gave 99.9% optical purity. […] Besides, the conversion cannot reach 100% with 24 h in the asymmetric reduction of (4-bromophenyl)-(phenyl)-methanone and p-nitrobenzophenone due to the low enzyme activity.
# [7] = substrate [drawing 6], 4-chlorophenacyl chloride
# [8] = substrate [drawing 9], ethyl 4-chloro-3-oxobutanoate
# [9] = substrate [drawing 10], acetophenone
# [10] = substrate [drawing 11], 4-chloroacetophenone
# [11] = substrate [drawing 12], 4-chlorobenzoyl chloride
# [12] = substrate [drawing 16], (4-bromophenyl)-(phenyl)-methanone
# [13] = substrate [drawing 17], p-nitrobenzophenone
# [14] = substrate [drawing 14], likely CPMK (values partly match Table 4)
molecule,measurement,setting,value
B1,Kcat,[1],8.33 ± 0.17 s⁻¹
same,Km,[1],400 ± 20 µM
same,Vmax,[1],12.5 ± 0.16 µM/min/mg
same,configuration of product / stereoselectivity in words,[2],inversion from the R configuration to the S configuration; also recorded: (S)-CPMA
same,e.e.,[2],52.0 (S)
same,specific activity,[3]; substrate [drawing 1],0.19 U/mg
same,specific activity,[3]; substrate [drawing 2],0.09 U/mg
same,specific activity,[3]; substrate [drawing 3],0.25 U/mg
same,specific activity,[3]; substrate [drawing 4],5.69 U/mg
same,specific activity,[3]; substrate [drawing 5],2.55 U/mg
same,specific activity,[3]; [7],5.96 U/mg
same,specific activity,[3]; substrate [drawing 7],15.58 U/mg
same,specific activity,[3]; substrate [drawing 8],30.69 U/mg
same,specific activity,[3]; [8],1.59 U/mg
same,ee value,[4]; substrate 4-chlorobenzoyl chloride,99.6%
same,Stereoselectivity (ee),[4]; [9],98.9 (R)
same,Stereoselectivity (ee),[4]; [10],95.6 (R)
same,Stereoselectivity (ee),[4]; [11],99.6 (R)
same,Stereoselectivity (ee),[4]; [12],90.6 (R)
same,Stereoselectivity (ee),[4]; [13],91.9 (R)
same,Stereoselectivity (ee),[5]; substrate [drawing 13],52.6 (R)
same,Stereoselectivity (ee),[5]; [14],52.0 (S)
same,Stereoselectivity (ee),[5]; substrate [drawing 15],88.1 (R)
same,Stereoselectivity (ee),[5]; substrate [drawing 18],92.3 (R)
same,Conversion rate,"[6]; 4-chlorobenzoyl chloride 100 mM, 1 h",66%
same,Conversion rate,"[6]; 4-chlorobenzoyl chloride 100 mM, 2 h",79%
same,Conversion rate,"[6]; 4-chlorobenzoyl chloride 100 mM, 3 h",90%
same,Conversion rate,"[6]; 4-chlorobenzoyl chloride 100 mM, 4 h",98%
same,Conversion rate,"[6]; 4-chlorobenzoyl chloride 100 mM, 6 h",99.2%
same,Conversion rate,"[6]; 4-chlorobenzoyl chloride 100 mM, 8 h",99.8%
same,Conversion rate,"[6]; 4-chlorobenzoyl chloride 100 mM, 12 h",>99.9%
same,Conversion rate,"[6]; 4-chlorobenzoyl chloride 100 mM, 24 h",>99.9%
same,Conversion rate,"[6]; 4-chlorobenzoyl chloride 200 mM, 1 h",55%
same,Conversion rate,"[6]; 4-chlorobenzoyl chloride 200 mM, 2 h",69%
same,Conversion rate,"[6]; 4-chlorobenzoyl chloride 200 mM, 3 h",76%
same,Conversion rate,"[6]; 4-chlorobenzoyl chloride 200 mM, 4 h",85.9%
same,Conversion rate,"[6]; 4-chlorobenzoyl chloride 200 mM, 6 h",96.4%
same,Conversion rate,"[6]; 4-chlorobenzoyl chloride 200 mM, 8 h",99.1%
same,Conversion rate,"[6]; 4-chlorobenzoyl chloride 200 mM, 12 h",99.8%
same,Conversion rate,"[6]; 4-chlorobenzoyl chloride 200 mM, 24 h",>99.9%
same,Conversion rate,"[6]; 4-chlorobenzoyl chloride 500 mM, 1 h",35.6%
same,Conversion rate,"[6]; 4-chlorobenzoyl chloride 500 mM, 2 h",49.6%
same,Conversion rate,"[6]; 4-chlorobenzoyl chloride 500 mM, 3 h",66.4%
same,Conversion rate,"[6]; 4-chlorobenzoyl chloride 500 mM, 4 h",79.3%
same,Conversion rate,"[6]; 4-chlorobenzoyl chloride 500 mM, 6 h",89.0%
same,Conversion rate,"[6]; 4-chlorobenzoyl chloride 500 mM, 8 h",95.6%
same,Conversion rate,"[6]; 4-chlorobenzoyl chloride 500 mM, 12 h",96.9%
same,Conversion rate,"[6]; 4-chlorobenzoyl chloride 500 mM, 24 h",98.9%
B2,Kcat,[1],8.46 ± 0.27 s⁻¹
same,Km,[1],320 ± 30 µM
same,Vmax,[1],12.69 ± 0.40 µM/min/mg
same,e.e.,[2],98.5 (R)
same,specific activity,[3]; substrate [drawing 1],0.16 U/mg
same,specific activity,[3]; substrate [drawing 2],0.12 U/mg
same,specific activity,[3]; substrate [drawing 3],2.37 U/mg
same,specific activity,[3]; substrate [drawing 4],2.86 U/mg
same,specific activity,[3]; substrate [drawing 5],9.21 U/mg
same,specific activity,[3]; [7],27.07 U/mg
same,specific activity,[3]; substrate [drawing 7],24.47 U/mg
same,specific activity,[3]; substrate [drawing 8],27.64 U/mg
same,specific activity,[3]; [8],8.03 U/mg
same,Stereoselectivity (ee),[4]; [9],17.1 (R)
same,Stereoselectivity (ee),[4]; [10],97.8 (R)
same,Stereoselectivity (ee),[4]; [11],75.2 (R)
same,Stereoselectivity (ee),[4]; [12],88.1 (S)
same,Stereoselectivity (ee),[4]; [13],85.3 (S)
same,Stereoselectivity (ee),[5]; substrate [drawing 13],36.6 (R)
same,Stereoselectivity (ee),[5]; [14],98.7 (R)
same,Stereoselectivity (ee),[5]; substrate [drawing 15],54.2 (S)
same,Stereoselectivity (ee),[5]; substrate [drawing 18],81.8 (S)
